Experiment [1] has as its target HIV-1 Env (NL4-3) labeled with Cy3 at the LV4-2-A1 loop insertion, on virions (HIV-1 NL4-3). Nature of the experiment: intermolecular smFRET; high-FRET state assigned to CD4 bound to the Cy3-labelled gp120.
Experiment [2] deals with wild-type HIV-1NL4-3 Env (unlabeled gp120 protomers of the trimer on virions) (HIV-1 NL4-3). Nature of the experiment: intermolecular smFRET; CD4 bound to an unlabeled gp120 of the trimer, donor Cy3 on the neighbouring labelled gp120.

Results on 1 substance are retold here after US20150166611A1.

Substance “Cy5-labeled soluble CD4(C92) (D1-D2) (from UniProt P01730 26-208) (receptor)” returned an FRET state (high) (FRET efficiency) in experiment [1] of 0.85. For the same substance, in experiment [2], the FRET state (intermediate) (FRET efficiency) stood at 0.3 and the FRET state (low) (FRET efficiency) was 0.2.
